Legend:
[1] = biological target: T1, Bcl-xL/Bak GD domain interaction (Homo sapiens, UniProt Q07817); experiment: High through-put screening assay 2: GST-Bcl-xL binding to biotinylated Bak GD peptide on neutravidin wells, ELISA; conditions: competing peptide added, ELISA signal
T1 construct: made in house; host or cells: E. coli
Experimental: An assay was developed to screen for compounds that block the interaction between the Bcl-2 homologs, Bcl-xL and Bak. A synthetic peptide corresponding to the Bak GD binding domain ([…] [SEQ ID NO: 35]) was biotinylated and bound to wells coated with neutravidin. […] Peptides encompassing the GD domain from various Bcl-2 family members were tested for their ability to block GD domain-mediated interactions in this assay. Peptides tested: Bcl-w [SEQ ID NO: 39] […] ([…]), Bak [SEQ ID NO: 36]([…]), Bak-15 [SEQ ID NO: 37] ([…]), Bak-15L78A [SEQ ID NO: 38] ([…]), control (no peptide).
In a modification of the high through-put screening assay 1 described herein, wells are coated with an avidin derivative, to which a biotinylated peptide/protein is bound. A GST-fusion protein that can interact with the biotinylated peptide/protein is added in the presence or absence of test compounds. The plates are incubated and then unbound GST-fusion protein is removed by washing. The amount of GST-fusion protein specifically bound to the tethered peptide/protein is determined by ELISA using an anti-GST antibody conjugated to horse radish peroxidase. Compounds which block the interaction between the biotinylated peptide/protein and the GST-fusion protein cause a decrease in the ELISA signal.
In a specific example, an assay was developed to screen for compounds that block the interaction between the Bcl-2 homologs, Bcl-xL and Bak. A biotinylated Bak GD domain peptide (amino acid residues 71-89; N-biotinylated […] [SEQ ID NO: 35]) was bound to wells coated with neutravidin. […] Using this assay, peptides from Bcl-2 family members were identified which block the Bcl-xL/Bak GD domain interaction (FIG. 10).

[2] = biological target: T2, interaction of GST-Bcl-xL and Bak (Homo sapiens, UniProt Q07817); experiment: In vitro binding assay: inhibition of GST-Bcl-xL binding to 35S-methionine-labeled Bak; conditions: peptide mixed with GST-Bcl-xL 30 minutes prior to addition to the binding assay
T2 construct: made in house; host or cells: GST-Bcl-xL: E. coli; Bak: rabbit reticulocyte lysate (Promega)
T2 sequence (Q07817 whole entry): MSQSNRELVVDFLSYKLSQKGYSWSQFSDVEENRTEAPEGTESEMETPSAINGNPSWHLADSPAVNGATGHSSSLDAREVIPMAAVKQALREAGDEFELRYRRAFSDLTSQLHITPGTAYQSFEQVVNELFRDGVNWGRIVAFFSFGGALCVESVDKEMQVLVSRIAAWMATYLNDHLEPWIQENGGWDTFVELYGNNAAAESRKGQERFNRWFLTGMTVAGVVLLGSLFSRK
Experimental: An in vitro binding assay as described herein in Example A.3. was used to measure the inhibition of GST-Bcl-xL binding to in vitro translated ^35Met-labeled Bak by a 20-amino acid peptide derived from the Bak GD domain (70-89; […] [SEQ ID NO: 36]). The peptide was mixed with the GST-Bcl-xL protein 30 minutes prior to addition to the binding assay. The concentration of peptide in the binding assay is indicated. Control assay contains no peptide.
The beads were removed by centrifugation and the supernatants were incubated with GST or GST-Bcl-xL (final concentration […]) at 4° C. for 1 hour. The GST fusion proteins and any interacting proteins were recovered by incubation for 1 hour with an additional […] of GSH-agarose beads. The beads were washed twice with NP-40 lysis buffer followed by two washes with NP-40 lysis buffer without NP-40. Proteins were eluted from the beads by incubation in SDS-PAGE sample buffer at 100° C. for 5 min and loaded onto 4-20% SDS-polyacrylamide gels. Following electrophoresis, gels were fixed and incubated in a fluorography enhancing solution (Amplify; Amersham). […]
GST-Bcl-xL, or GST-Bcl-2 is incubated with a labeled GD domain-containing protein in the presence of a test compound. Resulting protein complexes are captured on GSH-agarose beads and the amount of labeled interacting protein is measured. […]

T1 sequence (Q07817 whole entry, the tested form may be a part): as the sequence (Q07817 whole entry) above

## TMGQVGRQLAIIGDDINRRY [Bak peptide, Bak GD domain peptide, amino acid residues 70-89]
[1]
  inhibition of Bcl-xL/Bak GD domain binding: concentration-dependent inhibition of binding
[2]
  inhibition of the interaction of GST-Bcl-xL and 35S-methionine-labeled Bak: inhibition of the interaction

From US7358088B2, “Peptides and compositions which modulate apoptosis” (ImmunoGen, Inc., priority 1995, dated 2008)
